Publication PMC4521159

Assays:
[1] = target: α-synuclein oligomers formed during incubation with IDE (37 °C, 48 h, agitation) (UniProt P37840)
[2] = target: α-synuclein oligomers formed during incubation with IDE (37 °C, 48 h, agitation) (UniProt P37840); remark: listed apart in the source
[3] = target: pre-formed α-synuclein oligomers (formed with the small molecule FN075) (UniProt P37840); assay: ITC; 200 μM IDE in the syringe, 20 μM pre-formed α-synuclein oligomers (FN075) in the cell; 20 or 30 °C; 20 mM phosphate pH 7.4, 140 mM NaCl

kcat of 1 μM IDE on fluorogenic substrate V after 48 h pre-incubation with 0-100 μM α-synuclein (0.020 without; highest at 100 μM) [1]: 0.058 s⁻¹ | kcat of 3 μM IDE on fluorogenic substrate V after 48 h pre-incubation with 0-70 μM α-synuclein (0.241 without; highest at 35 μM) [1]: 0.397 s⁻¹ | kcat/KM of 1 μM IDE on fluorogenic substrate V after 48 h pre-incubation with 0-100 μM α-synuclein (1010 without; highest at 100 μM) [1]: 1190 M⁻¹ s⁻¹ | kcat/KM of 3 μM IDE on fluorogenic substrate V after 48 h pre-incubation with 0-70 μM α-synuclein (25400 without; highest at 35 μM) [1]: 30500 M⁻¹ s⁻¹ | ThT fluorescence of 70 μM α-synuclein after 48 h (37 °C, agitation) with 0.2-6.0 μM IDE; half maximal inhibition of amyloid formation (molar ratio IDE to α-synuclein) [2]: 0.025 | stoichiometry N (IDE molecules per α-synuclein oligomer) [3]: 3
Substance: Insulin-degrading enzyme (IDE) (from UniProt P14735 1-1019)
